This is an account of results in patent publication US20030148511A1.

In the assay the target is human granzyme B (human) (UniProt P10144). Briefly: cell-based or functional assay.
Chain of UniProt P10144 (P10144 21-247 limits assumed): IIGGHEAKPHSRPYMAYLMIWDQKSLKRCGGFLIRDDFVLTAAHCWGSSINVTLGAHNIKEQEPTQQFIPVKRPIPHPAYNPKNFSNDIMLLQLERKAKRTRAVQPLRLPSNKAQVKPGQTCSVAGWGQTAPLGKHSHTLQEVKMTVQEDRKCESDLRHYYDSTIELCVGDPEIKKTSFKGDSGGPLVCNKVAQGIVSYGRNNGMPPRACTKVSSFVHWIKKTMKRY

Take “serine protease inhibitor 6 (SPI6), mouse serpin”: the apoptosis of Jurkat cells (% of cells YOPRO-1-positive) after perforin and human granzyme B (% of cells YOPRO-1-positive) was determined as 27.
